Measured values: article PMC4004541, “PEG-Like Nanoprobes: Multimodal, Pharmacokinetically and Optically Tunable Nanomaterials” (PLoS ONE, 2014)

Legend:
HT-29 cells = experiment: Non-specific binding (NSB) to HT-29 cells by FACS; format: cell-based, human; settings: 100 μL of nanoprobes (2 μM) added to 100 μl 2% FBS/DPBS, 30 min at 37 °C, means±1 S.D.
Text: We next examined the non-specific binding (NSB) of PN’s to HT-29 cells based on the assumption that NSB minimization will correlate with a desirable minimization of post-IV injection retention. As noted above, after diagnostic drugs generate their added information, retention can only increase the risks of delayed toxicity. The attachment of PEG decreased the non-specific binding (NSB) to HT-29 cells, scored as the percent of cells above the cutoff for unstained cells seen with FACS ( Table 1 , column 7).
PN and peptide binding to cells (effect of PEGylation on NSB): HT-29, a human colon carcinoma cell line, was from the American Tissue Culture Collection and maintained according to their instructions. Cells were seeded on 24-well plates at 5X10^5 cells/well in culture medium (RPMI 1640 with 10% FBS) the day before the assay. The day of assay, medium was removed, wells rinsed twice with DPBS (+Ca, +Mg), and 100 μl of 2% FBS / DPBS (+Ca, +Mg) added. 100 μL of Nanoprobes (2 μM) in DPBS (+Ca, +Mg) was added to cells and incubated for 30min at 37 °C. (Probe concentrations were determined spectrophotometrically (783 nm, extinction coefficient of 314 471 cm^-1 M^-1 for IR-783; 497 nm, extinction coefficient of 68 000 cm^-1 M^-1 for Fluorescein; 545 nm, extinction coefficient of 150 000 cm^-1 M^-1 for Cy3). Cells were detached by Trypsin/EDTA and assayed for fluorescence by FACS (BD 7 laser LSR2 for nanoprobes with IR-783; BD 3 laser LSR2 for nanoprobes with Fluorescein or Cy3).
Figure S4: Effect of PEGylation on non-specific binding to cells by single channel FACS. […] Arrows indicates the cutoff for unstained cells.

[1] = Probe size (volume) by FPLC calibrated with globular protein standards; format: physicochemical; settings: for Volume FPLC, globular protein equivalent molecular volume: Superdex 200 10/300GL, 0.05 M sodium phosphate, 0.1 M NaCl (0.1% Tween, pH 7.2), 0.8 ml/min, calibrated with globular protein standards; for Volume FPLC Dia. (diameter): globular protein equivalent volume from FPLC converted to spherical diameter by formula (ref 15)
Text: FPLC chromatograms are shown for PN’s bearing the IR-783 fluorochrome with PEG’s ranging from 2 to 40 kDa ( Figure 2A ). FPLC was calibrated with globular protein standards, and globular protein equivalent molecular volumes (in kDa) were obtained ( Table 1 , column 5). Next, these globular protein equivalent molecular volumes were converted to PN diameters in nm using the relationship: [drawing 1] where M is the molecular weight of a globular protein expressed in daltons. PN diameters ranged from 3.0 to 11.7 nm, which means PN’s can be smaller or larger than albumin (MW = 67 kDa; diameter = 5.4 nm, by the formula above). Thus Table 1 column 5 gives the PN volumes obtained from FPLC expressed in two ways: (i) as the molecular weight in kDa of globular proteins with equivalent volumes, permitting size comparison of PN’s to proteins, and, (ii) as spherical diameters (“Dia.”) in nm, permitting size comparisons of a PN to relative to other nanomaterials. We confirmed the sizes obtained with FPLC by measuring the size of PN(783)11.7 by dynamic light scattering (11.7 nm).
The mass spec of low molecular weight (MW) materials were obtained by MS-ESI Micromass (Waters) and high MW molecules were determined through MALDI-TOF analyses at the Tufts University Core Facility. RP-HPLC (Varian ProStar detector and delivery modules) employed an eluant A (0.1% TFA/water) and eluant B (0.1% TFA and 9.9% water in acetonitrile). Probe size (volume) was determined by FPLC using an ÄKTA Purifier 10 and SuperdexTM 200 10/300GL column (GE Healthcare) with a running buffer of 0.05 M sodium phosphate, 0.1 M NaCl (0.1% Tween, pH 7.2) and flow rate of 0.8 ml/min. Standards (GE Healthcare) were Ferritin, Ribonuclease A, Carbonic Anhydrase, and Conalbumin and Blue Dextran 2000. To obtain probe volumes, Mr (apparent molecular weight based on size exclusion retention) was plotted versus Kav. [drawing 7] , Vt = total volume, Ve = elution volume, Vo = void volume.
PN and peptide characterization: The mass spec of low molecular weights (MW) were obtained by MS-ESI Micromass (Waters) and high MW molecules were determined through MALDI-TOF analyses at the Tufts University Core Facility. RP-HPLC (Varian ProStar detector and delivery modules) employed an eluant A (0.1% TFA /water) and eluant B (0.1% TFA and 9.9% water in acetonitrile). […] Standards (GE Healthcare) were Ferritin, Ribonuclease A, Carbonic Anhydrase, and Conalbumin and Blue Dextran 2000. To obtain probe volumes, Mr (apparent molecular weight based on size exclusion retention) was plotted versus Kav. [picture] , Vt = total volume, Ve = elution volume, Vo = void volume.

[2] = Quantum yield of fluorochrome-bearing peptides and PN's; format: physicochemical; settings: means±1 S.D.
Text: (The p values showing significances are in Figure S2 in File S1). […] PEG attachment increased quantum yields in all cases, but as discussed below the magnitude of PEG generated improvement varied with the fluorochrome chosen. A mechanism for the PEG improvement of quantum yield is fluorochrome shielding, or the blocking of fluorochrome-fluorochrome interactions that result in quenching.
However, the magnitude of these benefits varied with the fluorochrome selected. […] Previous studies indicated PEGylated, fluorochrome-bearing peptides have absorption spectra in PBS similar to their unstacked absorption spectra in methanol. […] It appears that longer wavelength fluorochromes have stronger fluorochrome/fluorochrome stacking interactions, which result in more quenching, which is blocked by PEG and which gives rise to larger increases in quantum yield.

[3] = Circulating form of PN's: FPLC of sera of injected mice; format: in vivo; settings: 20 nmoles IV tail vein, nude mice, FPLC at 783 nm
Experimental: To see if the variable PN size could be translated into tunable pharmacokinetics, it was essential to first establish that PN’s circulated at PEG-determined, pre-injection dimensions. Mice were injected with PN’s and FPLC chromatograms of serum samples, taken at various times post injection ( Figures 2D, 2E and 2F ), compared with pre-injection PN samples. By using PN’s absorbing at 783 nm, chromatograms from the sera of injected mice reflect this PN, since there are no compounds in serum that absorb at this wavelength. […] Similarly, peaks for PN(783)6.1 ( Figure 2E ) and PN(783)4.3 ( Figure 2F ) where identical for pre-injection samples and for nanoprobes in the sera of injected mice. Thus, molecular weight of the PEG chosen determines PN dimensions in vitro and those dimensions are maintained after injection.
(§1) At the indicated time, 50 µl of blood was collected with microhematocrit capillary tube (Fisher Scientific) from the tail, and transferred to Eppendorf microcentrifuge tube with anticoagulant (EDTA) coating (Fisher Scientific). Tubes were centrifuged (5000 rpm for 5 min), and the supernatant was injected to the FPLC, a ÄKTA Purifier 10 with SuperdexTM 200 10/300GL column.
as §1, with “μl” for “µl”

Substance	Cell NSB: percent of HT-29 cells above the cutoff for unstained cells (HT-29 cells)	Volume FPLC, globular protein equivalent molecular volume [1]	Volume FPLC Dia. (diameter) [1]	Quant. Yield [2]	Circulating size: FPLC peaks of serum samples after injection versus pre-injection sample [3]
(DOTA)Lys(PEG 2 kDa)-Cys(IR-783) [PN(783)3.0, PEG-like Nanoprobe: 2 kDa PEG, IR-783 fluorochrome, DOTA peptide]	50±1%	11.2 kDa	3.0 nm	0.13±0.02	–
(DOTA)Lys(PEG 5 kDa)-Cys(Cy3) [PN(545)4.3, PEG-like Nanoprobe: 5 kDa PEG, Cy3 fluorochrome, DOTA peptide]	31±1%	35 kDa	4.3 nm	0.59±0.09	–
(DOTA)Lys(PEG 5 kDa)-Cys(Fl) [PN(497)4.3, PEG-like Nanoprobe: 5 kDa PEG, fluorescein, DOTA peptide]	0.2±0.1%	35 kDa	4.3 nm	0.59±0.06	–
(DOTA)Lys(PEG 10 kDa)-Cys(IR-783) [PN(783)6.1, PEG-like Nanoprobe: 10 kDa PEG, IR-783 fluorochrome, DOTA peptide]	14±1%	100.7 kDa	6.1 nm	0.16±0.03	identical
(DOTA)Lys(PEG 20 kDa)-Cys(IR 783) [PN(783)8.4, PEG-like Nanoprobe: 20 kDa PEG, IR-783 fluorochrome, DOTA peptide]	14±1%	262.5 kDa	8.4 nm	0.16±0.04	–
(DOTA)Lys(PEG 30 kDa)-Cys(Cy3) [PN(545)10.0, PEG-like Nanoprobe: 30 kDa PEG, Cy3 fluorochrome, DOTA peptide]	15±1%	435 kDa	10.0 nm	0.61±0.10	–
(DOTA)Lys-Cys(Cy3) [unPEGylated DOTA peptide with Cy3 fluorochrome on the cysteine side chain]	98±1%	–	–	0.32±0.07	–
(DOTA)Lys-Cys(Fl) [unPEGylated DOTA peptide with fluorescein on the cysteine side chain]	0.4±0.1%	–	–	0.50±0.11	–
